The target of the test is T1, recombinant human CD22 (labeled) (human, UniProt P20273 20-687, limits assumed).
T1 construct: Labeled antigen titrated on yeast; It may be CD22-Fc; also called labeled CD22
T1 sequence (looked up): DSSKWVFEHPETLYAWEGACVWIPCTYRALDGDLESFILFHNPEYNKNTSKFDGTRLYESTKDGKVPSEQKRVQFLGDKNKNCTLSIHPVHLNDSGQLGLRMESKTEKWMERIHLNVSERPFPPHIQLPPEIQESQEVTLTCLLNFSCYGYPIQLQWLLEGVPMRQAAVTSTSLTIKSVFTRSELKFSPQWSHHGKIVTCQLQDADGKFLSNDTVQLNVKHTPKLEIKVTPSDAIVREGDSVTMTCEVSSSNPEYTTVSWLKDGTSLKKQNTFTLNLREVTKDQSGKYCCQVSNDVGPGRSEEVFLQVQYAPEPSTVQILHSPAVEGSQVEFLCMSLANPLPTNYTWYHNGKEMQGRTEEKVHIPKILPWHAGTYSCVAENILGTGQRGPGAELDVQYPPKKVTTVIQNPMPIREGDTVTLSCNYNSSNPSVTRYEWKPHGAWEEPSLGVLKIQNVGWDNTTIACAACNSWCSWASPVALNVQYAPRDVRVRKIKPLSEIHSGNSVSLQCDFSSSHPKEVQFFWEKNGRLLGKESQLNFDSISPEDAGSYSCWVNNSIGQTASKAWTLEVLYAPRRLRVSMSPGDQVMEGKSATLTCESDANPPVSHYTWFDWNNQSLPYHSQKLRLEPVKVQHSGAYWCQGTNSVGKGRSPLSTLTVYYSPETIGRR
Nature of the test: flow cytometry of yeast-displayed scFv with decreasing amounts of labeled CD22. The protocol:
After electroporation, the resulting mutant library was then grown overnight at 30° C. for 16 hours in SDCAA medium and then switched into SGCAA medium at 30° C. for another 16 hours. The mutant library was then sorted through MACS (immunomagnetic column, Miltenyi Biotec) with CD22-Fc as the capture antigen to downsize the library and to increase the population of mutants that could bind to CD22-Fc. The strongest binders were then selected by double staining the pools with Anti-c-Myc-Alexa 488 and […] and selecting for the binders that had the highest binding affinities as well as c-Myc expression levels. This process was then repeated two more times, until flow cytometry of yeast particles with fluorescently tagged antigen yielded average binding affinities of the mutant pools that were increased over the starting construct. Binding affinities were estimated by flow cytometry of yeast pools using decreasing amounts of labeled CD22.
(A flow cytometer gives signals particle by particle.)

A value given as a limit tells only on which side of the number the result lay.

B1: human anti-CD22 ScFv binder 16P17 (scFv, V domains shown)
VH: QVQLQQSGPGLVKHSQTLSLTCAISGDSVSSNSAAWNWIRQSPSRGLEWLGRTYYRSKWYNDYAVSVKSRITINPDTSKNQFSLQLNSVTPEDTAVYYCAQEVEPHDAFDIWGQGTMVTVSS
VL: DIQMTQSPSSVYASVGDKVTITCRASQDVSGWLAWYQQKPGLAPQLLISGASTLQGEVPSRFSGSGSGTDFTLTISSLQPEDFATYYCQQAKYFPYTFGQGTKLEIK
notes: In the CARs the order is VH-(GGGGS)3-VL; also called CD22 scFv 16P17
As a reminder, the EC50 is the concentration giving half of the maximal effect. On to B1, for which the EC50 is < 0.01 µg/mL.

Source of the values: US20210379110A1 (LENTIGEN TECHNOLOGY, published 2021).
